Reference: the supplement of paper PMC12764529
± gives the half width of the 95% confidence interval.

Legend:
[1] = folding stability dG unfold from trypsin proteolysis; higher = more stable
How it was run: (§1)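 K50 was inferred by Bayesian fitting of sequencing counts obtained after protease digestion of designed mini-proteins. Unfolding free energy was derived by comparison with a sequence-predicted unfolded-state K50 and a shared folded-state K50, for each protease or both combined. The mini-proteins were under 80 residues, had no cysteine, were carried in a PA-tagged cDNA display construct, and were kept only if AlphaFold2 dimer inter-PAE exceeded 15.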

[2] = folding stability dG unfold from chymotrypsin proteolysis; higher = more stable
How it was run: as §1

[3] = folding stability dG unfold (combined trypsin and chymotrypsin); higher = more stable
How it was run: as §1

Row | Sequence | folding stability dG unfold [1] | folding stability dG unfold [2] | folding stability dG unfold [3]
1 | KIKELAKKLGLNVTVKVEKKPIKNPDGSTYTITKVEVTVDKKNKTITIKVEVKNKKTNKTITKTYTIKLKKS [r1_448_TrROS_Hall] | 2.37 ± 0.12 kcal/mol | 2.26 ± 0.11 kcal/mol | 2.64 ± 0.24 kcal/mol
2 | KKTYTAEEIRKLAEKLGLEVPEGDLEIKVVFKDNKKTYTIKPGEEYTLEEILEKLKKEKPNIVKIEIKKKPS [r1_135_TrROS_Hall] | 1.32 ± 0.18 kcal/mol | 2.31 ± 0.034 kcal/mol | 1.99 ± 0.27 kcal/mol
3 | KKVKIEIEVEKVEDGYYVVRIKVKFEETEETIELELVFPKSLEEVLEKIKELLPEGQITEVEIEVYPLPEPS [r1_399_TrROS_Hall] | 3.89 ± 0.23 kcal/mol | 3.13 ± 0.25 kcal/mol | 3.72 ± 0.67 kcal/mol
4 | KKVKIEIEVLSKTEEGYVMIAKAKYEEVEKVFEKPYKSKNPIETIKKIVKELFPGPEVTEVKVKYYPKEKKS [r1_399_TrMRF] | 1.11 ± 0.053 kcal/mol | 1.47 ± 0.11 kcal/mol | 1.35 ± 0.17 kcal/mol
5 | KKYKVPVKEALKVAKKLIEKGYEKVKITAYLPNGEKYEIEDIKEFEEELKKKFPGIKPENLTVEIEVIPKES [r1_325_TrMRF] | 3.26 ± 0.15 kcal/mol | 4.49 ± 0.26 kcal/mol | 4.16 ± 0.37 kcal/mol
6 | KTIEIWIPMPMGQAETFVKSLARKLGLPPDDYKVDNVEMQPNKDGWPYVKMEIKLPNNGKEIEIIMPPGWFS [r1_21_TrROS] | 1.67 ± 0.061 kcal/mol | 2.6 ± 0.059 kcal/mol | 2.38 ± 0.23 kcal/mol
7 | KTIMIWFPFKSWEDVRNLIRDLARELNLPPGRDVDVKVERHPNNGYFRVTVTVSNPNGEKIDITIWFPMWDS [r1_84_TrROS] | 3.42 ± 0.1 kcal/mol | 5.26 ± 0.15 kcal/mol | 4.91 ± 0.16 kcal/mol
8 | KTVHIPINGMPLDEMLDMARDALREDPDEGKTITIWVPGNPEWLENLGFDKIEPYKDPERPYMRIKFKVPPS [r1_467_TrROS] | 0.298 ± 0.17 kcal/mol | 1.24 ± 0.22 kcal/mol | 0.816 ± 0.14 kcal/mol
9 | KYELVATLSRPNPETGTVVNVSVYRFEDGSYRVLVDVSTFYRTPDGSLRTSSSRAVFLVPEDVDPRELVESS [r1_243_TrMRF] | 2.75 ± 0.039 kcal/mol | 3.57 ± 0.081 kcal/mol | 3.17 ± 0.11 kcal/mol
10 | LEIIEKLKFPGYKITSVSIQRTNNKVTIVIHFRHPKEYYMISLEIDPPNGGIKITEVHPIKPGESMDDMMNS [r1_383_TrROS] | 3.09 ± 0.15 kcal/mol | 3.75 ± 0.088 kcal/mol | 3.43 ± 0.33 kcal/mol
11 | MDVKIEPYRDPETGELYYKAVVKFKDGKEKLIEVKVPPNGKPIAKIYDPNGKLLAEKEFDSIEEALKEALAS [r1_478_TrMRF] | 3.3 ± 0.35 kcal/mol | 4.24 ± 0.16 kcal/mol | 3.91 ± 0.37 kcal/mol
12 | MEAEELATTLAAEALAPLPRPFEIDPENNEVRVPGGGELAELPIRVVLVDEDGEIVEERIVPVRIRAEEPGS [r1_318_TrMRF] | -0.362 ± 0.14 kcal/mol | 0.878 ± 0.083 kcal/mol | 0.542 ± 0.11 kcal/mol
13 | MEEEEKKKAETPEIPEEVAREKALEVARELGLEEIEEIEVLSASPEGYVTVRITLPTGGEVEITIPISELES [r1_435_JUSTAS] | 2.01 ± 0.13 kcal/mol | 2.76 ± 0.08 kcal/mol | 2.54 ± 0.18 kcal/mol
14 | MEEIKNLPGVKYEPIIEDGEIRLVRFEIPKEVFEKFGKPPVILLVEFSKDGKYRILPESIPKLLELGIIPGS [r1_256_TrMRF] | 1.85 ± 0.023 kcal/mol | 2.52 ± 0.058 kcal/mol | 2.27 ± 0.052 kcal/mol
15 | MIIIPNATPEEVKKIILDAAKKGKEIEILIEVDPNLGPKVIKALKDLPYVKKVEPLPDGSIKVYIDKKNLKS [r1_324_TrMRF] | 1.71 ± 0.038 kcal/mol | 3.24 ± 0.048 kcal/mol | 2.89 ± 0.093 kcal/mol
